# Reference: US20150246136A1 (Bayer, published 2015)
# Where “and” joins values, the source holds several entries; their conditions need not be identical. Identical values can stand only once.
# How the values were obtained:
# Carboanhydrase IX [1] = target: T1, Carboanhydrase IX (Homo sapiens, UniProt Q16790 38-459); assay: cell-based or functional assay
# Carboanhydrase IX [2] = target: T1, Carboanhydrase IX; assay: cell-based or functional assay; remark: listed apart in the source
EC50 (nM) HT29 (Carboanhydrase IX [1]),MIAPaCa 2/CA9+ IC50 (Carboanhydrase IX [2]) [nM],EC50 (nM) SNU-5 (Carboanhydrase IX [1]),Binder
2.9 nM,0.4,–,"Example 280 (antibody, human IgG1, kappa, V domains shown, linker-toxophore on cysteine S) VH: QVELVESGGGLVQPGGSLRLSCAASGFTFSSYGMSWVRQAPGKGLEWVSGISSLGSTTYYADSVKGRFTISRDNSKNTLYLQMNSLRAEDTAVYYCARTGSPGTFMHGDHWGQGTLVTVSS VL: DIQMTQSPSSLSASVGDRVTITCRASQDINNYLSWYQQKPGKAPKLLIYGASNLQSGVPSRFSGSGSGTDFTLTISSLQPEDFAVYYCQQYYGRPTTFGQGTKVEIKR"
> 100 nM,25,63 nM,"Example 295 (antibody, human IgG1, kappa, V domains shown, linker-toxophore on cysteine S) VH: QVELVESGGGLVQPGGSLRLSCAASGFTFSSYGMSWVRQAPGKGLEWVSGISSLGSTTYYADSVKGRFTISRDNSKNTLYLQMNSLRAEDTAVYYCARTGSPGTFMHGDHWGQGTLVTVSS VL: DIQMTQSPSSLSASVGDRVTITCRASQDINNYLSWYQQKPGKAPKLLIYGASNLQSGVPSRFSGSGSGTDFTLTISSLQPEDFAVYYCQQYYGRPTTFGQGTKVEIKR"
13.6 nM,1,21.4 nM,"Example 294 (antibody, human IgG1, kappa, V domains shown, linker-toxophore on cysteine S) VH: QVELVESGGGLVQPGGSLRLSCAASGFTFSSYGMSWVRQAPGKGLEWVSGISSLGSTTYYADSVKGRFTISRDNSKNTLYLQMNSLRAEDTAVYYCARTGSPGTFMHGDHWGQGTLVTVSS VL: DIQMTQSPSSLSASVGDRVTITCRASQDINNYLSWYQQKPGKAPKLLIYGASNLQSGVPSRFSGSGSGTDFTLTISSLQPEDFAVYYCQQYYGRPTTFGQGTKVEIKR"
0.7 nM and 1.6 nM,0.9,3 nM and 2.2 nM,"Example 284 (antibody, human IgG1, kappa, V domains shown, linker-toxophore on cysteine S) VH: QVELVESGGGLVQPGGSLRLSCAASGFTFSSYGMSWVRQAPGKGLEWVSGISSLGSTTYYADSVKGRFTISRDNSKNTLYLQMNSLRAEDTAVYYCARTGSPGTFMHGDHWGQGTLVTVSS VL: DIQMTQSPSSLSASVGDRVTITCRASQDINNYLSWYQQKPGKAPKLLIYGASNLQSGVPSRFSGSGSGTDFTLTISSLQPEDFAVYYCQQYYGRPTTFGQGTKVEIKR"
< 0.01 nM,0.02,–,"Example 297 (antibody, human IgG1, kappa, V domains shown, linker-toxophore on cysteine S) VH: QVELVESGGGLVQPGGSLRLSCAASGFTFSSYGMSWVRQAPGKGLEWVSGISSLGSTTYYADSVKGRFTISRDNSKNTLYLQMNSLRAEDTAVYYCARTGSPGTFMHGDHWGQGTLVTVSS VL: DIQMTQSPSSLSASVGDRVTITCRASQDINNYLSWYQQKPGKAPKLLIYGASNLQSGVPSRFSGSGSGTDFTLTISSLQPEDFAVYYCQQYYGRPTTFGQGTKVEIKR"
0.4 nM,0.6,–,"Example 296 (antibody, human IgG1, kappa, V domains shown, linker-toxophore on cysteine S) VH: QVELVESGGGLVQPGGSLRLSCAASGFTFSSYGMSWVRQAPGKGLEWVSGISSLGSTTYYADSVKGRFTISRDNSKNTLYLQMNSLRAEDTAVYYCARTGSPGTFMHGDHWGQGTLVTVSS VL: DIQMTQSPSSLSASVGDRVTITCRASQDINNYLSWYQQKPGKAPKLLIYGASNLQSGVPSRFSGSGSGTDFTLTISSLQPEDFAVYYCQQYYGRPTTFGQGTKVEIKR"
27 nM,22,–,"Example 291 (antibody, human IgG1, kappa, V domains shown, linker-toxophore on cysteine S) VH: QVELVESGGGLVQPGGSLRLSCAASGFTFSSYGMSWVRQAPGKGLEWVSGISSLGSTTYYADSVKGRFTISRDNSKNTLYLQMNSLRAEDTAVYYCARTGSPGTFMHGDHWGQGTLVTVSS VL: DIQMTQSPSSLSASVGDRVTITCRASQDINNYLSWYQQKPGKAPKLLIYGASNLQSGVPSRFSGSGSGTDFTLTISSLQPEDFAVYYCQQYYGRPTTFGQGTKVEIKR"
0.3 nM,0.4,–,"Example 283 (antibody, human IgG1, kappa, V domains shown, linker-toxophore on cysteine S) VH: QVELVESGGGLVQPGGSLRLSCAASGFTFSSYGMSWVRQAPGKGLEWVSGISSLGSTTYYADSVKGRFTISRDNSKNTLYLQMNSLRAEDTAVYYCARTGSPGTFMHGDHWGQGTLVTVSS VL: DIQMTQSPSSLSASVGDRVTITCRASQDINNYLSWYQQKPGKAPKLLIYGASNLQSGVPSRFSGSGSGTDFTLTISSLQPEDFAVYYCQQYYGRPTTFGQGTKVEIKR"
223 nM,35,–,"Example 292 (antibody, human IgG1, kappa, V domains shown, linker-toxophore on cysteine S) VH: QVELVESGGGLVQPGGSLRLSCAASGFTFSSYGMSWVRQAPGKGLEWVSGISSLGSTTYYADSVKGRFTISRDNSKNTLYLQMNSLRAEDTAVYYCARTGSPGTFMHGDHWGQGTLVTVSS VL: DIQMTQSPSSLSASVGDRVTITCRASQDINNYLSWYQQKPGKAPKLLIYGASNLQSGVPSRFSGSGSGTDFTLTISSLQPEDFAVYYCQQYYGRPTTFGQGTKVEIKR"
< 0.01 nM,0.05,–,"Example 282 (antibody, human IgG1, kappa, V domains shown, linker-toxophore on cysteine S) VH: QVELVESGGGLVQPGGSLRLSCAASGFTFSSYGMSWVRQAPGKGLEWVSGISSLGSTTYYADSVKGRFTISRDNSKNTLYLQMNSLRAEDTAVYYCARTGSPGTFMHGDHWGQGTLVTVSS VL: DIQMTQSPSSLSASVGDRVTITCRASQDINNYLSWYQQKPGKAPKLLIYGASNLQSGVPSRFSGSGSGTDFTLTISSLQPEDFAVYYCQQYYGRPTTFGQGTKVEIKR"
49 nM,78,–,"Example 289 (antibody, human IgG1, kappa, V domains shown, linker-toxophore on cysteine S) VH: QVELVESGGGLVQPGGSLRLSCAASGFTFSSYGMSWVRQAPGKGLEWVSGISSLGSTTYYADSVKGRFTISRDNSKNTLYLQMNSLRAEDTAVYYCARTGSPGTFMHGDHWGQGTLVTVSS VL: DIQMTQSPSSLSASVGDRVTITCRASQDINNYLSWYQQKPGKAPKLLIYGASNLQSGVPSRFSGSGSGTDFTLTISSLQPEDFAVYYCQQYYGRPTTFGQGTKVEIKR"
115 nM,1.9,84 nM,"Example 290 (antibody, human IgG1, kappa, V domains shown, linker-toxophore on lysine NH) VH: QVELVESGGGLVQPGGSLRLSCAASGFTFSSYGMSWVRQAPGKGLEWVSGISSLGSTTYYADSVKGRFTISRDNSKNTLYLQMNSLRAEDTAVYYCARTGSPGTFMHGDHWGQGTLVTVSS VL: DIQMTQSPSSLSASVGDRVTITCRASQDINNYLSWYQQKPGKAPKLLIYGASNLQSGVPSRFSGSGSGTDFTLTISSLQPEDFAVYYCQQYYGRPTTFGQGTKVEIKR"
1.7 nM,1.2,–,"Example 281 (antibody, human IgG1, kappa, V domains shown, linker-toxophore on cysteine S) VH: QVELVESGGGLVQPGGSLRLSCAASGFTFSSYGMSWVRQAPGKGLEWVSGISSLGSTTYYADSVKGRFTISRDNSKNTLYLQMNSLRAEDTAVYYCARTGSPGTFMHGDHWGQGTLVTVSS VL: DIQMTQSPSSLSASVGDRVTITCRASQDINNYLSWYQQKPGKAPKLLIYGASNLQSGVPSRFSGSGSGTDFTLTISSLQPEDFAVYYCQQYYGRPTTFGQGTKVEIKR"
4.1 nM,0.8,–,"Example 299 (antibody, human IgG1, kappa, V domains shown, linker-toxophore on cysteine S) VH: QVELVESGGGLVQPGGSLRLSCAASGFTFSSYGMSWVRQAPGKGLEWVSGISSLGSTTYYADSVKGRFTISRDNSKNTLYLQMNSLRAEDTAVYYCARTGSPGTFMHGDHWGQGTLVTVSS VL: DIQMTQSPSSLSASVGDRVTITCRASQDINNYLSWYQQKPGKAPKLLIYGASNLQSGVPSRFSGSGSGTDFTLTISSLQPEDFAVYYCQQYYGRPTTFGQGTKVEIKR"
0.03 nM,0.8,–,"Example 286 (antibody, human IgG1, kappa, V domains shown, linker-toxophore on cysteine S) VH: QVELVESGGGLVQPGGSLRLSCAASGFTFSSYGMSWVRQAPGKGLEWVSGISSLGSTTYYADSVKGRFTISRDNSKNTLYLQMNSLRAEDTAVYYCARTGSPGTFMHGDHWGQGTLVTVSS VL: DIQMTQSPSSLSASVGDRVTITCRASQDINNYLSWYQQKPGKAPKLLIYGASNLQSGVPSRFSGSGSGTDFTLTISSLQPEDFAVYYCQQYYGRPTTFGQGTKVEIKR"
2.5 nM,1.1,7.8 nM,"Example 298 (antibody, human IgG1, kappa, V domains shown, linker-toxophore on cysteine S) VH: QVELVESGGGLVQPGGSLRLSCAASGFTFSSYGMSWVRQAPGKGLEWVSGISSLGSTTYYADSVKGRFTISRDNSKNTLYLQMNSLRAEDTAVYYCARTGSPGTFMHGDHWGQGTLVTVSS VL: DIQMTQSPSSLSASVGDRVTITCRASQDINNYLSWYQQKPGKAPKLLIYGASNLQSGVPSRFSGSGSGTDFTLTISSLQPEDFAVYYCQQYYGRPTTFGQGTKVEIKR"
0.5 nM,0.6,–,"Example 285 (antibody, human IgG1, kappa, V domains shown, linker-toxophore on cysteine S) VH: QVELVESGGGLVQPGGSLRLSCAASGFTFSSYGMSWVRQAPGKGLEWVSGISSLGSTTYYADSVKGRFTISRDNSKNTLYLQMNSLRAEDTAVYYCARTGSPGTFMHGDHWGQGTLVTVSS VL: DIQMTQSPSSLSASVGDRVTITCRASQDINNYLSWYQQKPGKAPKLLIYGASNLQSGVPSRFSGSGSGTDFTLTISSLQPEDFAVYYCQQYYGRPTTFGQGTKVEIKR"
0.1 nM,< 0.1,–,"Example 293 (antibody, human IgG1, kappa, V domains shown, linker-toxophore on cysteine S) VH: QVELVESGGGLVQPGGSLRLSCAASGFTFSSYGMSWVRQAPGKGLEWVSGISSLGSTTYYADSVKGRFTISRDNSKNTLYLQMNSLRAEDTAVYYCARTGSPGTFMHGDHWGQGTLVTVSS VL: DIQMTQSPSSLSASVGDRVTITCRASQDINNYLSWYQQKPGKAPKLLIYGASNLQSGVPSRFSGSGSGTDFTLTISSLQPEDFAVYYCQQYYGRPTTFGQGTKVEIKR"
> 30 nM,69,–,"Example 287 (antibody, human IgG1, kappa, V domains shown, linker-toxophore on cysteine S) VH: QVELVESGGGLVQPGGSLRLSCAASGFTFSSYGMSWVRQAPGKGLEWVSGISSLGSTTYYADSVKGRFTISRDNSKNTLYLQMNSLRAEDTAVYYCARTGSPGTFMHGDHWGQGTLVTVSS VL: DIQMTQSPSSLSASVGDRVTITCRASQDINNYLSWYQQKPGKAPKLLIYGASNLQSGVPSRFSGSGSGTDFTLTISSLQPEDFAVYYCQQYYGRPTTFGQGTKVEIKR"
39 nM,12,–,"Example 288 (antibody, human IgG1, kappa, V domains shown, linker-toxophore on cysteine S) VH: QVELVESGGGLVQPGGSLRLSCAASGFTFSSYGMSWVRQAPGKGLEWVSGISSLGSTTYYADSVKGRFTISRDNSKNTLYLQMNSLRAEDTAVYYCARTGSPGTFMHGDHWGQGTLVTVSS VL: DIQMTQSPSSLSASVGDRVTITCRASQDINNYLSWYQQKPGKAPKLLIYGASNLQSGVPSRFSGSGSGTDFTLTISSLQPEDFAVYYCQQYYGRPTTFGQGTKVEIKR"
